Experimental findings from patent US20060241051A1 (Takeda / Millennium, published 2006) are described below.

Assay [1] deals with T1, human OT7T175 (metastin receptor) (human, UniProt Q969F8 1-398).
T1 construct: expressed on CHO cells (hOT7T175-expressed CHO cells; hOT7T175/CHO); also called hOT7T175; h0T7T175
As to the kind of experiment: FMAT competition with Cy-5-labeled metastin (40-54), hOT7T175-expressed CHO cells.

Assay [2] concerns the target T1, human OT7T175 (metastin receptor). As to the kind of experiment: cell-based or functional assay.
Assay [3] has the same target. Kind of assay: cell-based or functional assay. The source holds these as a separate data set.

Like-named read-outs stand apart in the source and are kept apart here. Numbered stars: 1 amine (or outer) side, 2 acyl side, 3 side chain; on linkers, the order of the positions; unused ones are H or OH. Square brackets hold non-standard residues; d marks the D form. Ends that are not written are not given here. * marks the point of attachment. Ala(2-Qui) = 2-quinolylalanine, O=C([C@H](Cc1ccc2ccccc2n1)N[*:1])[*:2]; Tyr(Me) = O-methyltyrosine, COc1ccc(C[C@H](N[*:1])C(=O)[*:2])cc1; Arg(Me) = CNC(=N)NCCC[C@H](N)C(=O)O; Fmoc = O=C(OCC1c2ccccc2-c2ccccc21)*; azaGly = NNC(=O)O

T1 sequence (Q969F8 whole entry L364H): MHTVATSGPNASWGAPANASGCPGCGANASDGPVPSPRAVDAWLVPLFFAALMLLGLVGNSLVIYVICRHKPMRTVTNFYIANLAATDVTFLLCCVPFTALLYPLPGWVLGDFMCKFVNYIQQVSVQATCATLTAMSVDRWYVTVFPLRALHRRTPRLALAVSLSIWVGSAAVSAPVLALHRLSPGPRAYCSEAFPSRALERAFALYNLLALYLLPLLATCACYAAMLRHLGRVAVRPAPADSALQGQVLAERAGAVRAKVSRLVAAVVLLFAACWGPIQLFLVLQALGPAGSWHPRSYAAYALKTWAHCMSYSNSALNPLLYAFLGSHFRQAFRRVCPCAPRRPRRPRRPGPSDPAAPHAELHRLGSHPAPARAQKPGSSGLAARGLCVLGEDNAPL

B1: Compound No. 201: [Ala(2-Qui)10]MS10 (peptide)
peptide: YNWNSFGLR[Ala(2-Qui)]-NH2
modifications: N-terminus assumed
SMILES: CC(C)C[C@H](NC(=O)CNC(=O)[C@H](Cc1ccccc1)NC(=O)[C@H](CO)NC(=O)[C@H](CC(N)=O)NC(=O)[C@H](Cc1c[nH]c2ccccc12)NC(=O)[C@H](CC(N)=O)NC(=O)[C@@H](N)Cc1ccc(O)cc1)C(=O)N[C@@H](CCCNC(=N)N)C(=O)N[C@@H](Cc1ccc2ccccc2n1)C(N)=O
With B1, the IC50 in assay [1] is 820 nM. Also, the “intracellular Ca ion level-increasing activity (FLIPR)” value in assay [2] is 1 specific activity to metastin (1-54).

B2: Compound No. 203: [D-Tyr1,Cha6,Arg(Me)9]MS10 (peptide)
peptide: YNWNSXGLRF
modifications: D-Tyr1; Cha6; Arg(Me)9; C-terminal amide
notes: printed structure is the same as that of Compound No. 172
Turning to B2, in assay [1], the IC50 came out at 37 nM. In assay [2], the “intracellular Ca ion level-increasing activity (FLIPR)” value was 10 specific activity to metastin (1-54). YNWNSFGLRX (Pya(4)10; C-terminal amide) [Compound No. 17: [Pya(4)10]MS10] gave an IC50 in assay [1] of 0.0066 nM. Also, the “intracellular Ca ion level-increasing activity (FLIPR)” value in assay [3] was 5 specific activity to metastin (1-54). YNWNSFGXRF (Nle8; C-terminal amide) [Compound No. 105: [Nle8]MS10]: the IC50 in assay [1] was 880 nM. The “intracellular Ca ion level-increasing activity (FLIPR)” value in assay [3] was 1 specific activity to metastin (1-54).

Molecule YNWNSFGLR[Tyr(Me)]-NH2 [Compound No. 18: [Tyr(Me)10]MS10] registered an IC50 in assay [1] of 7.7 nM. Besides, in assay [3], the “intracellular Ca ion level-increasing activity (FLIPR)” value is 1 specific activity to metastin (1-54). For YNWNSFGLRY-NH2 [Compound No. 109: [Tyr10]MS10] the same measures were 23 nM and 20 specific activity to metastin (1-54).

B3: Compound No. 229: [D-Tyr1,Val3,Arg(Me)9]MS10 (peptide)
peptide: [dY]NVNSFGL[Arg(Me)]F-NH2
modifications: N-terminus assumed
SMILES: CNC(=N)NCCC[C@H](NC(=O)[C@H](CC(C)C)NC(=O)CNC(=O)[C@H](Cc1ccccc1)NC(=O)[C@H](CO)NC(=O)[C@H](CC(N)=O)NC(=O)[C@@H](NC(=O)[C@H](CC(N)=O)NC(=O)[C@H](N)Cc1ccc(O)cc1)C(C)C)C(=O)N[C@@H](Cc1ccccc1)C(N)=O
In the case of B3, the IC50 in assay [1] was determined as 130 nM. For the same molecule, the “intracellular Ca ion level-increasing activity (FLIPR)” value in assay [2] is 1 specific activity to metastin (1-54).

B4: Compound No. 235: [D-Tyr1,Ala3,AzaGly7,Arg(Me)9]MS10 (peptide)
peptide: [dY]NANSF[azaGly]L[Arg(Me)]F-NH2
modifications: N-terminus assumed
SMILES: CNC(=N)NCCC[C@H](NC(=O)[C@H](CC(C)C)NC(=O)NNC(=O)[C@H](Cc1ccccc1)NC(=O)[C@H](CO)NC(=O)[C@H](CC(N)=O)NC(=O)[C@H](C)NC(=O)[C@H](CC(N)=O)NC(=O)[C@H](N)Cc1ccc(O)cc1)C(=O)N[C@@H](Cc1ccccc1)C(N)=O
Molecule B4 came in with an IC50 in assay [1] of 100 nM. Also, the “intracellular Ca ion level-increasing activity (FLIPR)” value in assay [2] was 1 specific activity to metastin (1-54).

B5: Compound No. 214: [D-Tyr1,Gln2,Arg(Me)9]MS10 (peptide)
peptide: [dY]QWNSFGL[Arg(Me)]F-NH2
modifications: N-terminus assumed
SMILES: CNC(=N)NCCC[C@H](NC(=O)[C@H](CC(C)C)NC(=O)CNC(=O)[C@H](Cc1ccccc1)NC(=O)[C@H](CO)NC(=O)[C@H](CC(N)=O)NC(=O)[C@H](Cc1c[nH]c2ccccc12)NC(=O)[C@H](CCC(N)=O)NC(=O)[C@H](N)Cc1ccc(O)cc1)C(=O)N[C@@H](Cc1ccccc1)C(N)=O
As to B5, in assay [1], the IC50 came to 390 nM. Further, the “intracellular Ca ion level-increasing activity (FLIPR)” value in assay [2] was 10 specific activity to metastin (1-54). For the molecule DNWNSFGLRF-NH2 [Compound No. 75: [Asp1]MS10], the IC50 in assay [1] was determined as 880 nM. For the same molecule, the “intracellular Ca ion level-increasing activity (FLIPR)” value in assay [3] was 1 specific activity to metastin (1-54). In the same order, the values of YNWNLFGLRF-NH2 [Compound No. 24: [Leu5]MS10] are 0.83 nM and 1 specific activity to metastin (1-54). For YNWNSFSLRF-NH2 [Compound No. 101: [Ser7]MS10] the same measures were 100 nM and 10 specific activity to metastin (1-54).

B6: Compound No. 233: [D-Tyr1,Ile3,AzaGly7,Arg(Me)9]MS10 (peptide)
peptide: [dY]NINSF[azaGly]L[Arg(Me)]F-NH2
modifications: N-terminus assumed
SMILES: CC[C@H](C)[C@H](NC(=O)[C@H](CC(N)=O)NC(=O)[C@H](N)Cc1ccc(O)cc1)C(=O)N[C@@H](CC(N)=O)C(=O)N[C@@H](CO)C(=O)N[C@@H](Cc1ccccc1)C(=O)NNC(=O)N[C@@H](CC(C)C)C(=O)N[C@@H](CCCNC(=N)NC)C(=O)N[C@@H](Cc1ccccc1)C(N)=O
For the molecule B6, the IC50 in assay [1] stood at 23 nM. In assay [2], the “intracellular Ca ion level-increasing activity (FLIPR)” value is 1 specific activity to metastin (1-54).

For the molecule YNWNSFALRF-NH2 [Compound No. 50: [Ala7]MS10], the IC50 in assay [1] amounted to 190 nM. The “intracellular Ca ion level-increasing activity (FLIPR)” value in assay [3] is 30 specific activity to metastin (1-54).

B7: Compound No. 234: [D-Tyr1,Val3,AzaGly7,Arg(Me)9]MS10 (peptide)
peptide: [dY]NVNSF[azaGly]L[Arg(Me)]F-NH2
modifications: N-terminus assumed
SMILES: CNC(=N)NCCC[C@H](NC(=O)[C@H](CC(C)C)NC(=O)NNC(=O)[C@H](Cc1ccccc1)NC(=O)[C@H](CO)NC(=O)[C@H](CC(N)=O)NC(=O)[C@@H](NC(=O)[C@H](CC(N)=O)NC(=O)[C@H](N)Cc1ccc(O)cc1)C(C)C)C(=O)N[C@@H](Cc1ccccc1)C(N)=O
In assay [1], B7 displayed an IC50 of 47 nM. Also, the “intracellular Ca ion level-increasing activity (FLIPR)” value in assay [2] is 1 specific activity to metastin (1-54).

B8: Compound No. 215: [D-Tyr1,Thr2,Arg(Me)9]MS10 (peptide)
peptide: [dY]TWNSFGL[Arg(Me)]F-NH2
modifications: N-terminus assumed
SMILES: CNC(=N)NCCC[C@H](NC(=O)[C@H](CC(C)C)NC(=O)CNC(=O)[C@H](Cc1ccccc1)NC(=O)[C@H](CO)NC(=O)[C@H](CC(N)=O)NC(=O)[C@H](Cc1c[nH]c2ccccc12)NC(=O)[C@@H](NC(=O)[C@H](N)Cc1ccc(O)cc1)[C@@H](C)O)C(=O)N[C@@H](Cc1ccccc1)C(N)=O
B8 displayed a 50% inhibitory concentration (IC50) in assay [1] of 250 nM. Besides, the “intracellular Ca ion level-increasing activity (FLIPR)” value in assay [2] is 10 specific activity to metastin (1-54). Consider Fmoc-NSFGLRF-NH2 [Compound No. 53: des(1-3)-Fmoc-MS10], for which the “intracellular Ca ion level-increasing activity (FLIPR)” value in assay [3] is 1 specific activity to metastin (1-54).

B9: Compound No. 224: des(1)-[D-Tyr2,D-Trp3,Arg(Me)9]MS10 (peptide)
peptide: [dY][dW]NSFGL[Arg(Me)]F-NH2
modifications: N-terminus assumed
SMILES: CNC(=N)NCCC[C@H](NC(=O)[C@H](CC(C)C)NC(=O)CNC(=O)[C@H](Cc1ccccc1)NC(=O)[C@H](CO)NC(=O)[C@H](CC(N)=O)NC(=O)[C@@H](Cc1c[nH]c2ccccc12)NC(=O)[C@H](N)Cc1ccc(O)cc1)C(=O)N[C@@H](Cc1ccccc1)C(N)=O
Consider B9, for which the IC50 in assay [1] was 140 nM. In addition, the “intracellular Ca ion level-increasing activity (FLIPR)” value in assay [2] is 2 specific activity to metastin (1-54). For [dY]WNSFGL[Arg(Me)]F-NH2 [Compound No. 217: des(1)-[D-Tyr2,Arg(Me)9]MS10] the same measures were 250 nM and 20 specific activity to metastin (1-54).

In assay [1], [dN]WNSFGL[Arg(Me)]F-NH2 [Compound No. 216: des(1)-[D-Asn2,Arg(Me)9]MS10] returned an IC50 of 700 nM. Besides, in assay [2], the “intracellular Ca ion level-increasing activity (FLIPR)” value is 1 specific activity to metastin (1-54).

As for [dY]TNSF[azaGly]L[Arg(Me)]F-NH2 [Compound No. 241: des(1)-[D-Tyr2,Thr3,AzaGly7,Arg(Me)9]MS10], the IC50 in assay [1] was 56 nM. Also, in assay [2], the “intracellular Ca ion level-increasing activity (FLIPR)” value was 1 specific activity to metastin (1-54). Take [dY]INSFGL[Arg(Me)]F-NH2 [Compound No. 228: des(1)-[D-Tyr2,Ile3,Arg(Me)9]MS10]: in assay [1], the IC50 was 40 nM. Moreover, the “intracellular Ca ion level-increasing activity (FLIPR)” value in assay [2] is 5 specific activity to metastin (1-54).

In turn, YNWNSFGLRX (Nal(2)10; C-terminal amide) [Compound No. 110: [Nal(2)10]MS10] registered an IC50 in assay [1] of 24 nM. Moreover, in assay [3], the “intracellular Ca ion level-increasing activity (FLIPR)” value is 20 specific activity to metastin (1-54). Molecule YNWNSFGLXF (Har9; C-terminal amide) [Compound No. 97: [Har9]MS10] gave an IC50 in assay [1] of 370 nM. The “intracellular Ca ion level-increasing activity (FLIPR)” value in assay [3] is 10 specific activity to metastin (1-54).

B10: Compound No. 1: Metastin (peptide)
peptide: GTSLSPPPESSGSRQQPGLSAPHSRQIPAPQGAVLVQREKDLPNYNWNSFGLRF
With B10, in assay [3], the “intracellular Ca ion level-increasing activity (FLIPR)” value was 1 specific activity to metastin (1-54). Regarding [dY][dN]WNSF[azaGly]LR(Me)F-NH2 [Compound No. 237: [D-Tyr1,D-Asn2,AZaGly7,Arg(Me)9]MS10], in assay [1], the IC50 was found to be 27 nM. In addition, the “intracellular Ca ion level-increasing activity (FLIPR)” value in assay [2] was 3 specific activity to metastin (1-54).

Turning to YN[dW]NSFGLRF-NH2 [Compound No. 40: [D-Trp3]MS10], the “intracellular Ca ion level-increasing activity (FLIPR)” value in assay [3] was 30 specific activity to metastin (1-54). On the same count and under the same terms, in the case of Fmoc-NWNSFGLRF-NH2 [Compound No. 55: des(1)-Fmoc-MS10] it was 5 specific activity to metastin (1-54).

B11: Compound No. 54: des(1-2)-Fmoc-MS10 (peptide)
peptide: Fmoc-WNSFGLRF-NH2
SMILES: CC(C)C[C@H](NC(=O)CNC(=O)[C@H](Cc1ccccc1)NC(=O)[C@H](CO)NC(=O)[C@H](CC(N)=O)NC(=O)[C@H](Cc1c[nH]c2ccccc12)NC(=O)OCC1c2ccccc2-c2ccccc21)C(=O)N[C@@H](CCCNC(=N)N)C(=O)N[C@@H](Cc1ccccc1)C(N)=O
B11: the IC50 in assay [1] amounted to 450 nM. Moreover, in assay [3], the “intracellular Ca ion level-increasing activity (FLIPR)” value is 5 specific activity to metastin (1-54).

For the molecule [dY]NWNSFGLRF-NH2 [Compound No. 42: [D-Tyr1]MS10], the “intracellular Ca ion level-increasing activity (FLIPR)” value in assay [3] was 30 specific activity to metastin (1-54).

With [dY]WNSF[azaGly]L[Arg(Me)]F-NH2 [Compound No. 222: des(1)-[D-Tyr2,AzaGly7,Arg(Me)9]MS10], the IC50 in assay [1] turned out to be 33 nM. The “intracellular Ca ion level-increasing activity (FLIPR)” value in assay [2] is 5 specific activity to metastin (1-54).

[dY]NWNSF[azaGly]LR(Me)F-NH2 [Compound No. 232: [D-Tyr1,AzaGly7,Arg(Me)9]MS10] returned an IC50 in assay [1] of 49 nM. Besides, the “intracellular Ca ion level-increasing activity (FLIPR)” value in assay [2] is 3 specific activity to metastin (1-54).

As usually defined, the IC50 is the concentration that gives 50% inhibition. Lower therefore signals greater potency.
